The assay addresses p185 erbB-2 on SK-BR-3 human breast carcinoma cells (human, UniProt P04626 23-1255).

Our source for the EC50 values is patent publication US6498233 (dated 1996).

The EC50 is the concentration at which the effect is half-maximal. High values mean lower potency in that assay, low ones higher potency in that assay.

B1: scFv(FRP5)-DETA-DGAL4 protein (scFv)
chain: DYKDDDDKLHHHHHHKLQVQLQQSGPELKKPGETVKISCKASGYPFTNYGMNWVKQAPGQGLKWMGWINTSTGESTFADDFKGRFDFSLETSANTAYLQINNLKSEDMATYFCARWEVYHGYVPYWGQGTTVTVSSGGGGSGGGGSGGGGSDIQLTQSHKFLSTSVGDRVSITCKASQDVYNAVAWYQQKPGQSPKLLIYSASSRYTGVPSRFTGSGSGPDFTFTISSVQAEDLAVYFCQQHFRTPFTFGSGTKLEIKALEGGSLAALTAHQACHLPLETFTRHRQPRGWEQLEQCGYPVQRLVALYLAARLSWNQVDQVIRNALASPGSGGDLGEAIREQPEQARLALTLAAAESERFVRQGTGNDEAGAANADEKLLSSIEQACDICRLKKLKCSKEKPKCAKCLKNNWECRYSPKTKRSPLTRAHLTEVESRLERLEQLFLLIFPREDLDMILKMDSLQDIKALLTGLFVQDNVNKDAVTDRLASVETDMPLTLRQHRISATSSSEESSNKGQRQLTVSSSDYKDEL
As to B1, the EC50 was found to be 20 nM.
